Consider three molecules from publication PMC11997425, “MADS-domain transcription factor AGAMOUS LIKE-9 participates in the gibberellin pathway to promote bud dormancy release of tree peony”.

In series [1] the target is T1, GST-PsAGL9 (Paeonia suffruticosa, UniProt V9I0Q3 1-243). The experiment in a line: EMSA; Chemiluminescent EMSA Kit (Beyotime); buffer, salt, pH and temperature not stated. As to conditions: protein: recombinant; tags: GST (pGEX-4T-1); label: biotin. Background: Mobility shift assays separate free from complexed probe on a gel.
T1 sequence (V9I0Q3 entry or part of it): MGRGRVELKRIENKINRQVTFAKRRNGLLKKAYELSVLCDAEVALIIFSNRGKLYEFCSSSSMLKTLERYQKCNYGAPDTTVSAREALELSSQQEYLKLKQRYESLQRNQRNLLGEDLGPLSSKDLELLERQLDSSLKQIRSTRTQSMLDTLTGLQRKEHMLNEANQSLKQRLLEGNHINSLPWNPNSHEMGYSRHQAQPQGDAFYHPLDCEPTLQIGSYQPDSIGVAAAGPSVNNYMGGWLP
The target in series [2] is T1, GST-PsAGL9. The experiment in a line: EMSA; 10x and 20x cold probe weakened signal; Chemiluminescent EMSA Kit (Beyotime); buffer, salt, pH and temperature not stated. The settings on record: protein: recombinant; tags: GST (pGEX-4T-1); label: biotin; blunt.
In series [3] the target is T1, GST-PsAGL9. In words: competition; 10x and 20x cold mutant probe did not affect signal; Chemiluminescent EMSA Kit (Beyotime); buffer, salt, pH and temperature not stated. The settings on record: protein: recombinant; tags: GST (pGEX-4T-1).

B1: PsEBB3 CArG probe (dsDNA)
DNA 1: ATGTCCATAATTTAGGCCTA
DNA 2: TAGGCCTAAATTATGGACAT
With B1, the binding result with GST-PsAGL9 [1] is “binds”.

B2: PsCYCD CArG probe (dsDNA)
DNA 1: TTTGGCCAATTTTGGTTAA
DNA 2: TTAACCAAAATTGGCCAAA
In the case of B2, the binding result with GST-PsAGL9 [2] is “binds”.

B3: PsCYCD mutant probe (cold-mP) (dsDNA)
DNA 1: TTTGGCCGACCGGGGTTAA
DNA 2: TTAACCCCGGTCGGCCAAA
On to B3, for which the binding result with GST-PsAGL9 [3] is recorded as “no binding”.
